Source: patent US20250059295A1 (AstraZeneca / MedImmune, published 2025)

Tests used:
[1] = molecular target: T1, CD8 (cluster of differentiation 8), CD8ab (UniProt P01732 22-235; P10966 22-210); experiment: flow cytometry on cells carrying CD8
T1 construct: whole, on cells; The method names Jurkat (TCR neg) CD8ab+ cells
Experimental: (§1) Cell based binding assays were performed on BD FACSymphony™ A5 Cell Analyzer. To determine binding affinity of AZD6621, C4-2 cells and Jurkat (TCR neg) CD8ab+ cells expressing Steap2 and CD8ab respectively were used for the assay. The cells were harvested and resuspended in FACS buffer (DPBS-1X, 2% FBS, & 5 mM EDTA) at 2×10e6 cells/ml. Cells were seeded in U-bottom Tissue Culture treated 96 Well-plate at 50 ul/well making the cell number at 100,000 per well. The test articles (AZD6621) titration were prepared (2×) using FACS buffer with the starting working concentration of 600 nM and with 1:4 dilution up to 8 titration points. Cells (50 ul/well) were then combined with primary antibody (50 ul/well) titration and incubated at 4° C. for 1 hour. After incubation, the cells were washed 2× using 200 ul of FACS buffer and resuspended with freshly prepared FACS buffer (100 ul/well) containing secondary antibody (Anti-H+L: Goat anti-Human IgG (H+L) Cross-Adsorbed Secondary Antibody, Alexa Fluor 647 (Invitrogen #A-21445) at 1:400 dilution) & DAPI (Live/Dead stain). The secondary antibody was incubated at 4° C. for 1 hour. […] The data was analyzed with FlowJo v 10.6.1. The target receptor binding was determined using geometric mean calculation on FlowJo software detecting the positive APC signal in each well. […]

[2] = molecular target: T2, six transmembrane epithelial antigen of prostate-2 (STEAP2) (human, UniProt Q8NFT2 1-490); experiment: flow cytometry on C4-2 cells expressing STEAP2
T2 construct: whole, on cells
T2 sequence (looked up): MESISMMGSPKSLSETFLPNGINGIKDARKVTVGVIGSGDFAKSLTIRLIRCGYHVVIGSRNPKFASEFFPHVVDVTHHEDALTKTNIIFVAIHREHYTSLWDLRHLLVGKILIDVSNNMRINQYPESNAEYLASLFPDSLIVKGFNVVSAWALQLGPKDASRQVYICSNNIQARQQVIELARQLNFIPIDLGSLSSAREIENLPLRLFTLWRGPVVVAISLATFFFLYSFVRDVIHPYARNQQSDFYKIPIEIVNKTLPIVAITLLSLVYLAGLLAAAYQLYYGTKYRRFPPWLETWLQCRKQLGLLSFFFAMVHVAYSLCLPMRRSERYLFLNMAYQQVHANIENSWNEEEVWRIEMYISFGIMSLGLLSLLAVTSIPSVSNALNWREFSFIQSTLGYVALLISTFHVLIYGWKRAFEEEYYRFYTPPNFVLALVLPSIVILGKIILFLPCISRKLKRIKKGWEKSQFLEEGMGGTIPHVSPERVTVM
Experimental: as §1

T1 sequence (P01732 22-235, chain 1 of 2): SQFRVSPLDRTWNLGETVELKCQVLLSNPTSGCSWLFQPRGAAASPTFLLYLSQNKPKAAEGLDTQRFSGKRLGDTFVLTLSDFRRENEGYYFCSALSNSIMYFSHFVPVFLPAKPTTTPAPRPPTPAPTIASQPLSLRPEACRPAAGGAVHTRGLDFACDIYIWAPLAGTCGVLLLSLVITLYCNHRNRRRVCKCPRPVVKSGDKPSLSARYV
T1 sequence (P10966 22-210, chain 2 of 2): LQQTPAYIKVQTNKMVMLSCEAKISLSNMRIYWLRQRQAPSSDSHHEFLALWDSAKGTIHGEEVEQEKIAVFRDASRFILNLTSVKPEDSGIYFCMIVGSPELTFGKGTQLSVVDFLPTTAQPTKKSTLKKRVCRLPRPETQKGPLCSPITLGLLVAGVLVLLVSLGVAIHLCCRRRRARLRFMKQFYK

binding result [1]: binds
binding result [2]: binds
B1: 40A3LO12-TED4-K17/E75 (other)
heavy 1: QVQLQQSGPGLVKPSQTLSLTCAISGDSVSRNSAVWNWIRQSPSRGLEWLGRTYYRSKWYNDYAVSVKSRITINPDTSKNQFSLQLNSVTPEDTAVYYCARGLRQNQFYYYMDVWGKGTTVTVSSASTKGPSVFPLAPSSKSTSGGTAALGCLVKDYFPEPVTVSWNSGALTSGVHTFPAVLQSSGLYSLKSVVTVPSSSLGTQTYICNVNHKPSNTKVDKRVEPKSCDGGGGSGGGGSEVQLVESGGALVKPGGSLRLSCAASGFTFTEAWMHWVRQAPGKQLEWVAQIKDRSQTYATYYAESVKGRFTISRDDSKNTLYLQMNSLKTEDTAVYYCRGVYYANAPFDYWGQGTLVTVSSASTKGPSVCPLAPSSKSTSGGTADLGCLVKDYFPEPVTVSWNSGALTSGVHTFPAVLQSSGLYSLSSVVTVPSSSLGTQTYICNVNHKPSNTKVDKRVEPKSVDKTHTCPPCPAPPVAGPSVFLFPPKPKDTLMISRTPEVTCVVVDVKHEDPEVKFNWYVDGVEVHNAKTKPREEQYNSTYRVVSVLTVLHQDWLNGKEYKCKVSNKALPAPIEKTISKAKGQPREPQVYTLPPCREEMTKNQVSLWCLVKGFYPSDIAVEWESNGQPENNYKTTPPVLDSDGSFFLYSKLTVDKSRWQQGNVFSCSVMHEALHNHYTQKSLSLSPGK
light 1: not shown
heavy 2: EVQLLESGGGLVQPGGSLRLSCAASGFTFDDYAIGWFRQAPGKEREGVSCIRVSDGSTYYADSVKGRFTISRDNSKNTLYLQMNSLRAEDTAVYYCAAGSLYTCVQSIVWPARPYYDMDYWGQGTLVTVSSGGGGSGGGGSQVQLQQSGPGLVKPSQTLSLTCAISGDSVSRNSAVWNWIRQSPSRGLEWLGRTYYRSKWYNDYAVSVKSRITINPDTSKNQFSLQLNSVTPEDTAVYYCARGLRQNQFYYYMDVWGKGTTVTVSSASTKGPSVFPLAPSSKSTSGGTAALGCLVKDYFPEPVTVSWNSGALTSGVHTFPAVLQSSGLYSLKSVVTVPSSSLGTQTYICNVNHKPSNTKVDKRVEPKSCDKTHTCPPCPAPPVAGPSVFLFPPKPKDTLMISRTPEVTCVVVDVKHEDPEVKFNWYVDGVEVHNAKTKPREEQYNSTYRVVSVLTVLHQDWLNGKEYKCKVSNKALPAPIEKTISKAKGQPREPQVCTLPPSREEMTKNQVSLSCAVKGFYPSDIAVEWESNGQPENNYKTTPPVLDSDGSFFLVSKLTVDKSRWQQGNVFSCSVMHEALHNHYTQKSLSLSPGK
light 2: DIVMTQSPLSLPVTPGEPASISCRSSQSLVHNTGNTYLSWYLQKPGQSPQSLIYKVSNRASGVPDRFSGSGSGTDFTLKISRVEAEDVGVYYCGQGTQAPFTFGSGTKVEIKGQPKAAPSVRLFPPCSEELQANKATLVCLISDFYPGAVTVAWKADSSPVKAGVETTTPSKQSNNKYAASSYLSLTPEQWKSHRSYSCQVTHEGSTVEKTVAPTEVS
notes: also called TED4 LO12
